These are literature values, as cited in article PMC7294136.

The target of one series is RAGE (Homo sapiens) (UniProt Q15109). Nature of the series: SPR. Background: SPR reads the build-up and loss of mass on a sensor chip optically.
For series [1], the target named is RAGE V domain (Homo sapiens) (UniProt Q15109).

With S100A4 (from UniProt P26447), the Kd (commonly a measure of binding affinity in units of concentration) with RAGE (Homo sapiens) was 138 nM.
Regarding S100B (from UniProt P04271), the Kd in series [1] is 500 nM.
